One series has as its system saliva RNases. Briefly: RNase activity assay: cell line RNA incubated with treated saliva, read on Agilent TapeStation. The series is classed as biochemical, human. Further details: key: Pass (green) indicating sufficient RNase inactivation; Partial Pass (yellow) indicating partial RNase inactivation; Fail (red) indicating incomplete RNase inactivation. The procedure: FIG. 27. Example of saliva RNase activity assays assayed on TapeStation High Sensitivity RNA ScreenTapes (5067; Agilent). Results from three independent assays are shown. Lanes 1-3 (left to right) are experimental controls including 500 μg RNA in RNase free water, untreated saliva without added cell line RNA, and untreated saliva incubated with cell line RNA. Lanes labeled “Incomplete RNase Inactivation” contain no ribosomal RNA bands, indicating RNase activity is present. Lanes labeled “Sufficient RNase Inactivation” contain sharp ribosomal bands (similar to RNA in water), indicating RNases have been inactivated. gDNA=genomic DNA.
To screen for chemical and protein-based reagents that inhibit saliva RNases, we developed an RNase activity assay in which purified cell line RNA was incubated for 30 min at 37° C. with saliva samples after treatment with potential reagents for RNase inhibition (FIG. 2.5.3). After incubation, RNA was purified and analyzed on an Agilent TapeStation. Sharpness of the eukaryotic ribosomal RNA bands (28S and 18S) were compared to determine RNase activity in the presence of various inhibitors. In addition, the Agilent TapeStation calculates an RNA Integrity Score (RIN) as a measure of RNA quality (RIN of 10-fully intact RNA, RIN of 1=fully degraded RNA), however contaminating nucleic acid (e.g., 16S and 23S rRNA from bacteria) interferes with this calculation.
To screen for chemical and protein-based reagents that inhibit saliva RNases, we developed an RNase activity assay in which purified cell line RNA was incubated for 30 min at 37° C. with saliva samples after treatment with potential reagents for RNase inhibition (FIG. 2.5.3). After incubation, RNA was purified and analyzed on an Agilent TapeStation. Sharpness of the eukaryotic ribosomal RNA bands (28S and 18S) were compared to determine RNase activity in the presence of various inhibitors. […]

In the next series the test system is RNase activity in saliva. Briefly: RNase Alert Assay on saliva samples. It is filed as biochemical, human. The procedure: FIGS. 3A-D. Optimizing and measuring RNase inhibition by murine RNase Inhibitor (mRI). (A) Diagram of the RNase Alert assay. A quenched fluorescent ssRNA probe reports RNase activity when the quencher and fluorophore are physically separated by RNase degradation. Data is collected immediately after saliva is added to the assay and the RNase activity is calculated from a linear slope of the first 90 second of measurements. (B) RNase activity in five individual saliva samples with or without addition of 4 U/μl mRI. (C) RT-qPCR data for a panel of 12 biomarkers indicating the relative abundance of each biomarker at the indicated time after lysis. Each timepoint is from a pooled saliva sample run through a separate device. Delta Ct values were normalized to the 0 second timepoint. Horizontal bars are mean+/−standard deviation. (D) RNase activity in four saliva samples before and after rehydrating an amplification pad containing 4 U/μl of lyophilized mRI. Saliva in rehydrated pads went through a 20-minute RPA incubation at 39° C. prior to addition to the RNase Alert assay showing that RNase inhibition is long-lived. Ct=Cycle Threshold. […]
To confirm that lyophilized mRI in the amplification pad can rehydrate and inhibit saliva RNases, four amplification pads were rehydrated with saliva and the contents of the rehydrated pads were measured in the RNase Alert Assay (FIG. 3D).

In the next series the test system is RT-RPA reactions. Briefly: RT-RPA interference (compatibility) testing of lysis and RNase inhibitor reagents, agarose gel. The series is classed as biochemical. Further details: key: Pass (green) indicates that reagents did not interfere with RT-RPA; Partial Pass: Partial pass (yellow) indicates that reagents had partial interference in RT-RPA; Fail (red) indicates reagents completely interfered with RT-RPA reactions. The following applies: 4 U/μl final in RT-RPA reaction. The procedure: FIG. 28. Reagent interference testing in RT-RPA. Lysis and RNase inhibitor reagents tested in RT-RPA using cDNA and RNA templates. RT-RPA reactions were prepared with varying concentrations of reagents, as labeled above (final concentrations in a 20 μl RT-RPA reaction are reported). Amplification products were run on a 2% agarose gel and band intensities were compared to control (No added reagent) reactions. Reactions labeled in red contain no reverse transcriptase. The expected size of the CXCL8 amplicon is indicated to the left of the gel. GuHCI=Guanidine hydrochloride, Triton=Triton X-100.
Reagents under consideration for the device were tested for compatibility with RT-RPA at the concentrations expected to be required for lysis. To test for interference, lysis or RNase inhibitor reagents were spiked into RT-RPA reactions with purified cell line RNA or cDNA as a template. Reactions were analyzed by agarose gel for the presence or absence of amplified products. […]

B1: Proteinase K: listed under Protein RNase Inhibitors (protein, UniProt P06873 106-384, looked up)
Proteinase K: AAQTNAPWGLARISSTSPGTSTYYYDESAGQGSCVYVIDTGIEASHPEFEGRAQMVKTYYYSSRDGNGHGTHCAGTVGSRTYGVAKKTQLFGVKVLDDNGSGQYSTIIAGMDFVASDKNNRNCPKGVVASLSLGGGYSSSVNSAAARLQSSGVMVAVAAGNNNADARNYSPASEPSVCTVGASDRYDRRSSFSNYGSVLDIFGPGTSILSTWIGGSTRSISGTSMATPHVAGLAAYLMTLGKTTAASACRYIADTANKGDLSNIPFGTVNLLAYNNYQA
With B1, the “Inactivation of saliva RNases, Result” value in the series with saliva RNases (50 μg/ml and 2.5 mg/ml) is recorded as “Fail”.

B2: NEB RI, murine: murine RNase Inhibitor (M0314; New England BioLabs) (protein, UniProt Q91VI7 1-456, looked up)
Ribonuclease inhibitor: MSLDIQCEQLSDARWTELLPLIQQYEVVRLDDCGLTEVRCKDISSAVQANPALTELSLRTNELGDGGVGLVLQGLQNPTCKIQKLSLQNCGLTEAGCGILPGMLRSLSTLRELHLNDNPMGDAGLKLLCEGLQDPQCRLEKLQLEYCNLTATSCEPLASVLRVKADFKELVLSNNDLHEPGVRILCQGLKDSACQLESLKLENCGITAANCKDLCDVVASKASLQELDLSSNKLGNAGIAALCPGLLLPSCKLRTLWLWECDITAEGCKDLCRVLRAKQSLKELSLASNELKDEGARLLCESLLEPGCQLESLWIKTCSLTAASCPYFCSVLTKSRSLLELQMSSNPLGDEGVQELCKALSQPDTVLRELWLGDCDVTNSGCSSLANVLLANRSLRELDLSNNCMGGPGVLQLLESLKQPSCTLQQLVLYDIYWTNEVEEQLRALEEERPSLRIIS
For B2, the “Inactivation of saliva RNases, Result” value is given as “Partial” with saliva RNases (4 U/μl) and “Pass” in the series with saliva RNases (8 U/μl). For the same molecule, the “RNase activity in saliva samples” value in the series with RNase activity in saliva (4 U/μL added, five donor saliva samples) is reported as “reduced the RNase activity in all five samples to negligible amounts”. Moreover, in the series on RNase activity in saliva (lyophilized in amplification pad, rehydrated with saliva, four pads), the “Inhibition of RNase activity” value was “Nearly complete inhibition of RNase activity”. Also, the “Compatibility in RT-RPA, Result” value in the series on RT-RPA reactions was “Pass”.

(Values after patent US20260199902A1, “SYSTEM AND APPARATUS FOR THE HAND-HELD AMPLIFICATION AND DETECTION OF NUCLEIC ACIDS” (Darwin Biosciences, Inc., priority 2022, published 2026).)
